# Laboratory results as given in PMC5750218, “Protein-inspired antibiotics active against vancomycin- and daptomycin-resistant bacteria” (Nature Communications, 2018).
# Read-outs that look alike come from different tables or passages of the source.
# How the values were obtained:
# Haemolysis assay = format: cell-based; details: human, whole blood
# Experimental: Haemolytic activity was measured as previously described with slight modifications, [45]. Fresh human venal blood was collected from healthy volunteers and pretreated with the anticoagulant sodium citrate. Serial twofold dilutions of each antibiotic, dissolved in 0.9% NaCl solution, were added to fresh human whole blood (50% final, vol:vol) to the final volume of 80 μL and incubated at 37 °C for 3 h on a horizontal shaker at 200 rpm. For negative and positive controls, human whole blood in 0.9% NaCl solution (A blank) and in sdH2O (A water) were used, respectively. After incubation, both test and A blank were mixed with 1 mL 0.9% NaCl solution, or sdH2O for the complete […] A water. After centrifugation of samples at 2500 rpm (700 × g) for 5 min, the release of haemoglobin was monitored by measuring the absorbance (A sample) of the supernatant at 540 nm using BMG Labtech PolarStar Omega multimode reader. The percentage of haemolysis was calculated according to the equation: %haemolysis=Asample-Ablank∕Awater-Ablank×100
# [1] = In vivo pharmacokinetics in mice; details: mouse; for level at 5 min / level at […] / level at 0.5 h / level at 1 h / level at 2 h / level at 4 h / level at 8 h / level at 24 h: male, CD1, plasma; for level at […]: 0.250 h; for level at 0.5 h: 0.500 h; for bioavailability / AUC(0-inf) / AUC(0-t) / C0 / clearance / half-life / MRT inf / MRT last / Vd / Cmax / Tmax: plasma; for bioavailability: subcutaneous, SC 10 mg kg-1 vs IV 2 mg kg-1; for MRT inf: read-out: MRT0-inf; for MRT last: read-out: MRT0-last; for Vd: read-out: Vdss
# Experimental: Performed by WuXi AppTec (Shanghai) Co., Ltd. Seven to 9-week-old male CD1 mice (SLAC Laboratory Animal Co. Ltd., Shanghai, China) weighing 25–35 g were acclimated for approximate 3 days before being used in the study. Animals are group housed during acclimation and in-life study in compliance with the National Research Council 'Guide for the Care and Use of Laboratory Animals.' The animal room environment is controlled (target conditions: temperature 18 to 26 °C, relative humidity 30–70%, 12 h artificial light and 12 h dark) with temperature and relative humidity monitored daily. Animals were deprived of food for approximately 16 h before formulation administration then allowed access to Certified Rodent Diet (Catalogue # M-01F, Shanghai SLAC Laboratory Animal Co. Ltd.) ad libitum 4 h post dosing. Water was autoclaved before being provided to the animals ad libitum. Formulations of compounds were prepared on the morning of the dosing day. The formulation for the IV group was filtered with filter of 0.22 μm before being dosed to animals. After dose formulation preparation, duplicate 50 μL aliquots were removed from each dose formulation for use in dose validation. For each compound studied, three mice were dosed intravenously (IV) administered to each animal via tail vein per facility SOPs using test article formulated in deionised water at 1 mg mL^−1 with a dose volume of 2 mg mL^−1, providing a dose of 2 mg mL^−1 (based on free base concentration). An additional three mice were dosed subcutaneously (SC) administered to each animal via subcutaneous bolus on each animals’ back per facility SOPs using test article formulated in deionised water at 2 mg mL^−1 with a dose volume of 5 mg mL^−1, providing a dose of 10 mg mL^−1. All animals were killed at the last study time point (100% CO2 was introduced into the animal box).
# Plasma samples were collected as the following target times after each dose administration: IV Sampling Time points (hours post dosing): 0, 0.083, 0.25, 0.5, 1, 2, 4, 8 and 24. SC Sampling Time points (hours post dosing): 0, 0.25, 0.5, 1, 2, 4, 8 and 24. Approximately 30 μL blood was obtained via submandibular or saphenous vein for the first several time points. For the last time point, samples were collected via cardiac puncture while the mouse was under anaesthesia. All blood samples were transferred into pre-chilled plastic microcentrifuge tubes containing 2 μL of ethylenediaminetetraacetic acid dipotassium salt (K2-EDTA) (0.5 M) as anticoagulant and placed on wet ice until centrifugation. Harvested blood samples were centrifuged within 30 min of collection at 7000 rpm (8546 × g) 4 °C for about 10 min. After centrifugation, plasma was transferred into another pre-labelled and pre-chilled polypropylene microcentrifuge tubes, then quick-frozen over dry ice and stored at −70 ± 10 °C until LC/MSMS analysis.
# LC-MS/MS methods for the quantitative determination of the test article in mouse plasma were developed with an internal standard. Benchtop stability of the compound in mouse plasma was determined at mid QC concentrations in triplicate at 0, 2 h at room temperature. The stability was determined using mean peak area ratio of T2/T0 sample. If the mean peak area ratio is within 80%~120%, the test article in the plasma is considered stable for 2 h at room temperature. […] A set of QC samples consists of three concentration levels (low, middle and high). The sample analysis was performed concurrently with a set of calibration standards and two sets of QC samples using the LC-MS/MS method.
# Plasma concentration vs. time data from individual animals was analysed by WinNonLin non-compartmental model (Phoenix WinNonlin 6.2.1, Pharsight, Mountain View, CA). Pharmacokinetic parameter C 0, T ½, CL, Vdss, C max, T max, AUC0-last, AUC0-inf, %F, MRT0-last, MRT0-inf and graphs of plasma concentration vs. time profile were derived.
# [2] = system: Bacillus subtilis ATCC 6633; assay: microbe, parasite or virus in culture; format: cell-based; details: ATCC 6633, 48 h
# Experimental: All compounds were dissolved in H2O. Bacillus subtilis ATCC® 6633™ NRS-231 was cultured in MHB at 37 °C for 48 h. A sample of each culture was then diluted 40-fold in fresh MHB and incubated at 37 °C for 18 h. Compounds were added to each row of 96-well NBS plates (NBS, Corning 3641), in duplicate. The tripeptide N,N΄-diacetyl-L-Lys-D-Ala-D-Ala was serially diluted twofold across the compound-containing wells from 6400 to 3 µg mL^−1. To this the resultant mid-log phase cultures were diluted to the final concentration of 5 × 10^5 CFU mL^−1, then added to wells of the compound-containing plates. All the plates were covered and incubated at 37 °C for 24 h.
# S. aureus ATCC 43300 = assay: Membrane permeability assay (propidium iodide); format: cell-based, Staphylococcus aureus
# Experimental: To evaluate the ability of the compounds to disrupt the cytoplasmic membrane integrity, the membrane impermeable fluorescent DNA intercalating dye propidium iodide (PI) was used. Early exponential phase cells were pelleted and washed twice in 10 mM HEPES buffer (pH 7.4) containing 50 µg mL^−1 of CaCl2 and 5 mM glucose, and then re-suspended in the same buffer (4 × 10^8 CFU mL^−1). Cell suspension was added to a 384-well black walled polystyrene plate (Corning, CLS3573) containing compounds, giving a final concentration of 16 µg mL^−1. After 1 h incubation at 37 °C, 5 µg mL^−1 of PI was added and fluorescence was monitored for 90 min using a Tecan Infinite® m1000 Pro Multi-mode reader (excitation/emission 535/620 nm). Data were corrected by subtraction of fluorescence signal arising from untreated cells in the presence of PI. […] Each sample was tested in quadruplicate and independent assays were performed twice showing similar results. Data was analysed and presented using Prism software.
# [3] = 37 °C, 20 µM
# Experimental: (§1) Briefly, test compounds (20 μM) were prepared from a 0.2 mM H2O stock solution (40 μL in 400 μL assay volume) except eucatropine, which was 300 μg mL^−1 in 100% DMSO (10 μL in 400 μL assay volume equivalent to 23 μM). The precipitating solution was prepared by adding 5 μL of 10 mM carbutamide in DMSO to 100 mL acetonitrile (final concentration: 135.5 ng mL^−1 or 0.5 μM carbutamide). The human plasma sample (pooled normal human plasma sodium heparin anticoagulant, 2 µL, Cat No.: [sequence], BioReclamation) and phosphate-buffer saline (PBS, pH 7.4 isotonic) were pre-heated at 37 °C for 30 min. 40 μL of test compounds (0.2 mM) were added to protein-low binding Eppendorf tubes, 160 μL of buffer was added, and the mixture was vortexed. For eucatropine, 10 μL of eucatropine (300 μg mL^−1) was added to a protein-low binding Eppendorf tube, 190 μL of buffer was added, and the mixture was vortexed. In each case, 200 μL of plasma was added and the resultant mixture vortexed. For the initial time point (reaction time t = 0 h), 50 μL of sample was immediately transferred into a protein-low binding Eppendorf tube and quenched with 150 μL of the ice-cold precipitating solution, followed by vortexing and subsequent storage at 4 °C. For the remaining time points, the plasma solution was incubated and shaken (150 rpm) at 37 °C. 50 μL aliquots were collected at time points of 0, 1, 3, 6 and 24 h and quenched with 150 μL the ice-cold precipitating solution. All samples were placed in a 4 °C fridge for 30 min then centrifuged at 14,000 × g for 8 min at 4 °C. The supernatant (100 μL) was transferred to a glass vial insert and stored at 4 °C until LC-MS/MS analysis. The percentage of test compounds remaining at the individual time points relative to sample at time point 0 h were reported.
# in vitro = details: human, 50% human plasma (pooled, sodium heparin) in PBS, pH 7.4
# Experimental: as §1
# [4] = system: S. aureus ATCC 43300 MRSA; assay: microbe, parasite or virus in culture; format: cell-based, Staphylococcus aureus
# Experimental: The compounds, along with standard antibiotics were serially diluted twofold across the wells of 96-well non-binding surface (NBS) polystyrene plates (Corning 3641). […] Standards ranged from 64 to 0.03 µg mL^−1 and compounds from 8 to 0.003 µg mL^−1 with final assay volumes of 100 µL per well. Gram-positive bacteria were cultured in Mueller Hinton broth (MHB) (Bactolaboratories, Cat. no. 211443) at 37 °C overnight. A sample of each culture was then diluted 40-fold in fresh MHB and incubated at 37 °C for 2–3 h. The resultant mid-log phase cultures were added to the compound-containing 96-well plates to give a final cell density of 5 × 10^5 colony forming unit (CFU) mL^−1. All the plates were covered and incubated at 37 °C for 24 h. MICs were the lowest concentration showing no visible growth.
# [5] = 2 mg/kg IV, n=3, read-out: Plasma concentration, Mean IV
# [6] = 2 mg/kg IV, read-out: Plasma concentration, Mean IV
# [7] = 10 mg/kg SC, n=3, read-out: Plasma concentration, Mean SC
# [8] = 10 mg/kg SC, read-out: Plasma concentration, Mean SC
Structure (SMILES),"level at 5 min [1, 5] [ng/mL]","level at […] [1, 6] [ng/mL]","level at 0.5 h [1, 6] [ng/mL]","level at 1 h [1, 6] [ng/mL]","level at 2 h [1, 6] [ng/mL]","level at 4 h [1, 6] [ng/mL]","level at […] [1, 7] [ng/mL]","level at 0.5 h [1, 8] [ng/mL]","level at 1 h [1, 8] [ng/mL]","level at 2 h [1, 8] [ng/mL]","level at 4 h [1, 8] [ng/mL]","level at 8 h [1, 8] [ng/mL]",AUC0-inf/AUC0-last ([1]; IV 2 mg kg-1) [%],AUC0-inf/AUC0-last ([1]; SC 10 mg kg-1) [%],Tlast ([1]; SC 10 mg kg-1) [h],bioavailability [1] [%],AUC(0-inf) ([1]; IV 2 mg kg-1) [ng·h/mL],AUC(0-t) ([1]; IV 2 mg kg-1) [ng·h/mL],C0 ([1]; IV 2 mg kg-1) [ng/mL],clearance ([1]; IV 2 mg kg-1) [mL/min/kg],also measured
"CCCCCCCCCCC(=O)N[C@@H](CCCCN)C(=O)N[C@@H](CCCCN)C(=O)N[C@@H](CCCCNC(=O)[C@H]1NC(=O)[C@H]2NC(=O)[C@H](NC(=O)[C@@H]3NC(=O)[C@H](CC(N)=O)NC(=O)[C@H](NC(=O)[C@@H](CC(C)C)NC)[C@H](O)c4ccc(c(Cl)c4)Oc4cc3cc(c4O[C@@H]3O[C@H](CO)[C@@H](O)[C@H](O)[C@H]3O[C@H]3C[C@](C)(N)[C@H](O)[C@H](C)O3)Oc3ccc(cc3Cl)[C@H]2O)c2ccc(O)c(c2)-c2c(O)cc(O)cc21)C(=O)O [Compound 19, nC10CO-KK-K(Vancomycin)-OH]",9370,6970,6060,4860,2640,1450,2650,5130,8790,9160,7370,2380,100,101,24,71.8,16900,16800,10900,1.98,"hemolysis at 3 h (Haemolysis assay; 100 µg mL-1): 0.7%; hemolysis at 3 h (Haemolysis assay; 1600 µg mL-1): 0.5%; level at 8 h [1, 6]: 137 ng/mL; level at 24 h [1, 6]: 5.7 ng/mL; level at 24 h [1, 8]: 124 ng/mL; Tlast ([1]; IV 2 mg kg-1): 18.7 h; half-life ([1]; IV 2 mg kg-1): 133 min; MRT inf ([1]; IV 2 mg kg-1): 2.26 h; MRT last ([1]; IV 2 mg kg-1): 2.2 h; Vd ([1]; IV 2 mg kg-1): 0.267 L/kg; AUC(0-inf) ([1]; SC 10 mg kg-1): 60500 ng·h/mL; AUC(0-t) ([1]; SC 10 mg kg-1): 59900 ng·h/mL; Cmax ([1]; SC 10 mg kg-1): 9970 ng/mL; Tmax ([1]; SC 10 mg kg-1): 1.67 h; half-life ([1]; SC 10 mg kg-1): 209 min; MRT inf ([1]; SC 10 mg kg-1): 5.59 h; MRT last ([1]; SC 10 mg kg-1): 5.32 h; Ac2Kaa concentration required to neutralise MIC activity [2]: 100 µg/mL; MIC [2]: ≤ 4 ng/mL; Membrane permeabilisation (propidium iodide fluorescence) (S. aureus ATCC 43300): little to no effect"
"CCCCCCCCCCC(=O)N[C@@H](CCCCN)C(=O)N[C@@H](CCCCN)C(=O)N[C@@H](CCCCN)C(=O)N[C@@H](CCCCNC(=O)[C@H]1NC(=O)[C@H]2NC(=O)[C@H](NC(=O)[C@@H]3NC(=O)[C@H](CC(N)=O)NC(=O)[C@H](NC(=O)[C@@H](CC(C)C)NC)[C@H](O)c4ccc(c(Cl)c4)Oc4cc3cc(c4O[C@@H]3O[C@H](CO)[C@@H](O)[C@H](O)[C@H]3O[C@H]3C[C@](C)(N)[C@H](O)[C@H](C)O3)Oc3ccc(cc3Cl)[C@H]2O)c2ccc(O)c(c2)-c2c(O)cc(O)cc21)C(=O)O [Compound 18, nC10CO-KKK-K(Vancomycin)-OH]",5440,3570,2250,1500,447,69.6,2360,4450,6220,4520,1260,113,101,101,8,77,4240,4210,6740,8.11,"hemolysis at 3 h (Haemolysis assay; 100 µg mL-1): 1.4%; hemolysis at 3 h (Haemolysis assay; 1600 µg mL-1): 1.2%; half-life ([1]; IV 2 mg kg-1): 46.2 min; MRT inf ([1]; IV 2 mg kg-1): 0.9 h; MRT last ([1]; IV 2 mg kg-1): 0.9 h; Vd ([1]; IV 2 mg kg-1): 0.43 L/kg; AUC(0-inf) ([1]; SC 10 mg kg-1): 16300 ng·h/mL; AUC(0-t) ([1]; SC 10 mg kg-1): 16100 ng·h/mL; Cmax ([1]; SC 10 mg kg-1): 6290 ng/mL; Tmax ([1]; SC 10 mg kg-1): 0.83 h; half-life ([1]; SC 10 mg kg-1): 66 min; MRT inf ([1]; SC 10 mg kg-1): 2 h; MRT last ([1]; SC 10 mg kg-1): 1.9 h; Ac2Kaa concentration required to neutralise MIC activity [2]: 100 µg/mL; MIC [2]: ≤ 4 ng/mL; % compound remaining after incubation in 50% human plasma, 0h [3]: 100%; remaining at 1 h, 20 µM (in vitro): 87%; remaining at 3 h, 20 µM (in vitro): 87%; remaining at 6 h, 20 µM (in vitro): 83%; remaining at 24 h, 20 µM (in vitro): 93%"
"CCCCCCCCCCC(=O)N[C@@H](CCCCN)C(=O)N[C@@H](CCCCN)C(=O)N[C@@H](CCCCNC(=O)[C@H]1NC(=O)[C@H]2NC(=O)[C@H](NC(=O)[C@@H]3NC(=O)[C@H](CC(N)=O)NC(=O)[C@H](NC(=O)[C@@H](CC(C)C)NC)[C@H](O)c4ccc(c(Cl)c4)Oc4cc3cc(c4O[C@@H]3O[C@H](CO)[C@@H](O)[C@H](O)[C@H]3O[C@H]3C[C@](C)(N)[C@H](O)[C@H](C)O3)Oc3ccc(cc3Cl)[C@H]2O)c2ccc(O)c(c2)-c2c(O)cc(O)cc21)C(N)=O [Compound 21, nC10CO-KK-K(Vancomycin)-NH2]",10000,5680,4330,2470,1940,758,944,1440,2950,3140,2320,1370,101,101,24,43,10900,10800,14200,3.13,"MIC S. aureus ATCC 43300 MRSA ([4]; 1% Survanta): 0.007 µg/mL; MIC S. aureus ATCC 43300 MRSA ([4]; 5% Survanta): 0.03 µg/mL; MIC S. aureus ATCC 43300 MRSA ([4]; no added Survanta): 0.015 µg/mL; level at 8 h [1, 6]: 49.4 ng/mL; level at 24 h [1, 8]: 45 ng/mL; Tlast ([1]; IV 2 mg kg-1): 8 h; half-life ([1]; IV 2 mg kg-1): 67.2 min; MRT inf ([1]; IV 2 mg kg-1): 1.7 h; MRT last ([1]; IV 2 mg kg-1): 1.6 h; Vd ([1]; IV 2 mg kg-1): 0.31 L/kg; AUC(0-inf) ([1]; SC 10 mg kg-1): 23400 ng·h/mL; AUC(0-t) ([1]; SC 10 mg kg-1): 23100 ng·h/mL; Cmax ([1]; SC 10 mg kg-1): 3560 ng/mL; Tmax ([1]; SC 10 mg kg-1): 2.33 h; half-life ([1]; SC 10 mg kg-1): 204 min; MRT inf ([1]; SC 10 mg kg-1): 6.3 h; MRT last ([1]; SC 10 mg kg-1): 6 h"
